Laboratory results taken from patent US20070004619A1, “Relaxin superfamily peptide analogues” (Howard Florey Institute of Experimental Physiology and …, priority 2003, published 2007).
Positions of bridges follow the written chain, without caps; N, C: chain ends. No end group written: not given here.

Key:
human LGR8 = biological target: T1, human LGR8 (Homo sapiens, UniProt Q8WXD0); assay: Functional cAMP assay: inhibition of the INSL3 response at the native INSL3 receptor (LGR8); assay type: cell-based; conditions: FIG. 4; human 293T cells stably transfected with human LGR8; cAMP ELISA
T1 construct: expressed in transfected cells; host or cells: human 293T cells, stably transfected
T1 sequence (Q8WXD0 whole entry): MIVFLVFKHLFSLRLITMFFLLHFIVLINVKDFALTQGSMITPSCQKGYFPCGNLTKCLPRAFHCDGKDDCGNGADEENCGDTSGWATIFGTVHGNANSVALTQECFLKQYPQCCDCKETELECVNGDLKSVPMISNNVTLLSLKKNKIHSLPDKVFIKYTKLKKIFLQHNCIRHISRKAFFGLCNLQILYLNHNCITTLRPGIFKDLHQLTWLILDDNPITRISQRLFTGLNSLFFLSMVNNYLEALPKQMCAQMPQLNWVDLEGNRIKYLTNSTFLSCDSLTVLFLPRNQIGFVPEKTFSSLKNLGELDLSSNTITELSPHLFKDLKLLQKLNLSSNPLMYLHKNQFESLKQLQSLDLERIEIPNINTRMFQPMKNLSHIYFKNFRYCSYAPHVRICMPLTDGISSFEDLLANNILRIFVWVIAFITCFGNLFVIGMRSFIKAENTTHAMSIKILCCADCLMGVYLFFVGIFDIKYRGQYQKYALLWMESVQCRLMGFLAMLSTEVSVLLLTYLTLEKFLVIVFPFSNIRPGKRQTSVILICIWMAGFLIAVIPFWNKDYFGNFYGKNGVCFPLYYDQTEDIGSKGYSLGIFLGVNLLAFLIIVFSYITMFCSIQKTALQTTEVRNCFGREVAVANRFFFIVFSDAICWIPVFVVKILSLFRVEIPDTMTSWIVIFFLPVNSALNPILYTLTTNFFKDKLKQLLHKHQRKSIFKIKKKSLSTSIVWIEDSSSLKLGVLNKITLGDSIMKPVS
Method: Human 293T cells stably transfected with human LGR7, or LGR8 were preincubated in the presence of 0.25 mM 3-isobutyl-1-methyl xanthine (IBMX, Sigma) before various treatments for 30 minutes. At the end of the incubation cells were lysed for measurement of cAMP using a well-characterized cAMP ELISA (Satoko et al., J Biol Chem, 278:7855-7862). All experiments were repeated at least three times using cells from independent transfections, Results are plotted as pmol cAMP/10^4 cells.

[1] = Circular dichroism (CD) spectroscopy; assay type: physicochemical; conditions: FIG. 5; in water and phosphate buffered saline
Method: Circular Dichroism (CD) Spectroscopy:
CD spectra were taken on a Jasco J-720 instrument at room temperature in a 1 mm path-length cell, Doubly distilled water, 10 mM sodium phosphate buffer containing 120 mM NaCl pH 7.4, and spectroscopy grade trifluoroethanol (TFE) were used as solvents. The peptide concentrations were made to 1 μM, determined by quantitative RP-HPLC and amino acid analysis (ref). Curves were smoothed by the algorithm provided by Jasco, Mean residue ellipticity ([θ]MR) is expressed in degrees×cm2/dmole by using the molecular mass. CD spectra evaluations were based on comparison with known peptide conformations (Otvos, L., Jr. 1996. from Neuropeptide protocols. Irvine, G. & Williams, C., Eds. pp 153-161. Humana Press, Totowa, N.J.).

inhibition of the response of INSL3 (measured by cAMP response) to the native INSL3 receptor (LGR8) (human LGR8): antagonistic activity
Substance: cINSLa: cyclic INSL3 B-chain mimetic; Glu4 and Arg26 replaced with cysteine and a disulphide bond formed (PTPCMREKLCGHHFVRALVRVCGGPCWSTEA; disulfide 4-26; cysteine pairing not given here)
alpha-helical content from CD spectra [1]: significant alpha-helical content
